The record followed here is article PMC11346174 (Investigative Ophthalmology & Visual Science, 2024).

Experiment [1] has as its target T1, PEDF-IgG Fc fusion protein (PEDF-Fc) (human, UniProt P36955 20-418).
T1 sequence (looked up): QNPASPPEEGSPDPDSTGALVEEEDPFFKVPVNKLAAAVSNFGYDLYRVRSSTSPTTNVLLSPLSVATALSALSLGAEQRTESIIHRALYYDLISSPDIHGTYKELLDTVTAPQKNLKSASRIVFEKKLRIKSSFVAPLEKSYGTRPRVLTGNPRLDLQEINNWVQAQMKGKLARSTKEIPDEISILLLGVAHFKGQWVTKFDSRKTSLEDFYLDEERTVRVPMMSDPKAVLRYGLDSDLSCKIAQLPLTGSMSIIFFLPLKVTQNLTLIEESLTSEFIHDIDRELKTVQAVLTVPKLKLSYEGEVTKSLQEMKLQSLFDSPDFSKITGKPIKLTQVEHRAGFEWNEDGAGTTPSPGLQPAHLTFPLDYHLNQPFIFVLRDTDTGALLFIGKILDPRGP
In words: peptide or protein array.

The target in experiment [2] is T1, PEDF-IgG Fc fusion protein (PEDF-Fc). Put plainly: colorimetric cell binding assay.

For the molecule EKNKRASVRRRIDQSNSHANI [VEGFR-1/Flt-1 amino acid stretch (1), 245-265 (D3), cellulose-bound peptides], the binding result in experiment [1] is given as “binds”.

Turning to IRGEHCNKKAVFSRISKFKSTRN, the binding result in experiment [1] is “binds”.

With AFITVKHRKQQVLETVA [peptide AF10], in experiment [2], the binding result was “binds”.

With NKRASVRRRIDQSNSHA [peptide AE10], the binding result in experiment [2] is listed as “binds”.

As for YDKAFITVKHRKQQVLETVAGKR [VEGFR-1/Flt-1 amino acid stretch (2), 303-325 (D4), cellulose-bound peptides], the binding result in experiment [1] is “binds”.
